US20250249076A1, “Composition Comprising a Combination of Lactoferrin and a Sulphated Polysaccharide” (Reckitt Benckiser Health Limited, priority 2022, published 2025)

What was measured:
[1] = test system: Lactobacilli at the level of the vaginal flora; settings: vaginal use; cited from earlier work
[2] = test system: Lactobacillus jensenii 25258; experiment: 96-well chequerboard growth assay (optical density over 48 hours), prebiotic effect; format: cell-based; settings: bacteria exposed to the ingredient alone; FIG. 5
Method: A stock solution of 8 mg/mL bovine lactoferrin, was prepared by adding the appropriate amount of sterile MilliQ water to the weighted compound, followed by vortexing and filter-sterilizing. A stock solution of 2 mg/ml of each of the carrageenans (κ-, I-, λ-) was prepared by adding the appropriate amount of sterile MilliQ water to the weighted compound, incubated at 37° C. for 30 minutes, followed by vortexing until clear, and filter-sterilizing. […] The stock solution of lactoferrin was serially diluted in a broth-based media (appropriate for growth of the particular microorganism to be assayed) along the rows of the microtiter plate. The stock solution of carrageenan (κ-, I-, or λ-) was serially diluted in a broth-based media (appropriate for growth of the particular microorganism) along the columns of the microtiter plate. The final volume of media in each well was 0.1 mL. Each well containing lactoferrin and/or carrageenan (κ-, I-, or λ-) was inoculated with log-phase bacteria/yeast at a concentration of 5×10^5 colony forming units (CFU)/well. […] After addition of the relevant microorganism, plates were sealed with optical quality film, and incubated within the plate reader at the appropriate growth temperature for the microorganism being assayed. The optical density (OD) was recorded every 15 minutes for a period of 48 hours to evaluate the microorganism growth and biomass formation.

B1: lactoferrin: iron-binding cationic glycoprotein belonging to the family of transferrins; bovine lactoferrin used in the Examples (protein, UniProt P24627 20-708, looked up)
Lactotransferrin: APRKNVRWCTISQPEWFKCRRWQWRMKKLGAPSITCVRRAFALECIRAIAEKKADAVTLDGGMVFEAGRDPYKLRPVAAEIYGTKESPQTHYYAVAVVKKGSNFQLDQLQGRKSCHTGLGRSAGWIIPMGILRPYLSWTESLEPLQGAVAKFFSASCVPCIDRQAYPNLCQLCKGEGENQCACSSREPYFGYSGAFKCLQDGAGDVAFVKETTVFENLPEKADRDQYELLCLNNSRAPVDAFKECHLAQVPSHAVVARSVDGKEDLIWKLLSKAQEKFGKNKSRSFQLFGSPPGQRDLLFKDSALGFLRIPSKVDSALYLGSRYLTTLKNLRETAEEVKARYTRVVWCAVGPEEQKKCQQWSQQSGQNVTCATASTTDDCIVLVLKGEADALNLDGGYIYTAGKCGLVPVLAENRKSSKHSSLDCVLRPTEGYLAVAVVKKANEGLTWNSLKDKKSCHTAVDRTAGWNIPMGLIVNQTGSCAFDEFFSQSCAPGADPKSRLCALCAGDDQGLDKCVPNSKEKYYGYTGAFRCLAEDVGDVAFVKNDTVWENTNGESTADWAKNLNREDFRLLCLDGTRKPVTEAQSCHLAVAPNHAVVSRSDRAAHVKQVLLHQQALFGKNGKNCPDKFCLFKSETKNLLFNDNTECLAKLGGRPTYEEYLGTEYVTAIANLKKCSTSPLLEACAFLTR
presence of Lactobacilli at the level of the vaginal flora [1]: able to increase the presence of Lactobacilli | viability / phase of the bacterial growth cycle of L. jensenii 25258 [2]: enters the death phase
